# Experimental data: article PMC4006750, “GOLPH3 Is Essential for Contractile Ring Formation and Rab11 Localization to the Cleavage Site during Cytokinesis in Drosophila melanogaster” (PLoS Genetics, 2014)
# Several values for one entry are separate records, joined by “and”; a condition that tells them apart may be missing. Equal values may be shown once.
# B1: Drosophila Rab11, GST removed (analyte of the SPR experiment) (natural protein, UniProt O18335 1-214, looked up)
# chain: MGAREDEYDYLFKVVLIGDSGVGKSNLLSRFTRNEFNLESKSTIGVEFATRSIEVDGKTIKAQIWDTAGQERYRAITSAYYRGAVGALLVYDIAKHLTYENVERWLRELRDHADQNIVIMLVGNKSDLRHLRSVPTDEAKLFAERNGLSFIETSALDSTNVETAFQNILTEIYRIVSQKQIRDPPEGDVIRPSNVEPIDVKPTVTADVRKQCCQ
# notes: Drosophila Rab11, full-length, made as GST fusion; source: E. coli BL21-CodonPlus [DE3], purified as GST fusion, GST cleaved off with PreScission Protease
# Molecular target: T1, Drosophila GOLPH3, GST removed (ligand of the SPR experiment) (Drosophila melanogaster, UniProt Q9VQ93 1-294)
# T1 construct: Drosophila melanogaster GOLPH3 (CG7085, sauron), polypeptide of 293 amino acids, full-length cDNA in pGEX-6p-2; A few vector residues probably remain at the N-terminus after PreScission cleavage; also called dGOLPH3; source: E. coli BL21-CodonPlus [DE3], purified as GST fusion, GST cleaved off with PreScission Protease; not shown: GST, N-terminal, cleaved
# Test: SPR; BIACORE X, GOLPH3 immobilised on CM5 chip by amine coupling (about 1200 RU); Rab11 analyte 50 nM to 10.0 µM in 10 mM Hepes pH 7.4, 150 mM NaCl, 0.005% surfactant P20, 30 µl/min
# Conditions: both partners purified
# T1 sequence (Q9VQ93 whole entry, the tested form may be a part): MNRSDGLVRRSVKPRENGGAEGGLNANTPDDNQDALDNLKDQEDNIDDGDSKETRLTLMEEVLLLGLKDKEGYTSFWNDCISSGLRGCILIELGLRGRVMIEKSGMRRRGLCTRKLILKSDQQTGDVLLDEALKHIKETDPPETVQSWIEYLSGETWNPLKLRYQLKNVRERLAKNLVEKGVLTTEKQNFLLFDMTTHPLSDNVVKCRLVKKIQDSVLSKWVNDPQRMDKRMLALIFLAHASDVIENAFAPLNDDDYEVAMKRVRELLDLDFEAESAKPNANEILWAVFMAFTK
binder,measurement,value
B1,Kd,180 nM
same,koff,~0.0002 s⁻¹ and ~0.0001 s⁻¹
